{"source": "paper doi:10.1101/419051", "about": "(bioRxiv, 2018)", "biological_target": "Rpt6 (human, UniProt P62195 1-406)", "assay": "cryo-EM structure"}
{"binder": "α2 subunit of the CP (natural protein) MAERGYSFSLTTFSPSGKLVQIEYALAAVAGGAPSVGIKAANGVVLATEKKQKSILYDERSVHKVEPITKHIGLVYSGMGPDYRVLVHRARKLAQQYYLVYQEPIPTAQLVQRVASVMQEYTQSGGVRPFGVSLLICGWNEGRPYLFQSDPSGAYFAWKATAMGKNYVNGKTFLEKRYNEDLELEDAIHTAILTLKESFEGQMTEDNIEVGICNEAGFRRLTPTEVKDYLAAIA", "values": [{"measurement": "binding result", "result": "binds"}]}
{"binder": "α3 subunit of the CP (natural protein) MSRRYDSRTTIFSPEGRLYQVEYAMEAIGHAGTCLGILANDGVLLAAERRNIHKLLDEVFFSEKIYKLNEDMACSVAGITSDANVLTNELRLIAQRYLLQYQEPIPCEQLVTALCDIKQAYTQFGGKRPFGVSLLYIGWDKHYGFQLYQSDPSGNYGGWKATCIGNNSAAAVSMLKQDYKEGEMTLKSALALAIKVLNKTMDVSKLSAEKVEIATLTRENGKTVIRVLKQKEVEQLIKKHEEEEAKAEREKKEKEQKEKDK", "values": [{"measurement": "binding result", "result": "binds"}]}
